The source of these data is publication PMC4661536, “Structural delineation of stem-loop RNA binding by human TAF15 protein”.

Common to all, as to conditions: protein: recombinant; hairpin, 8 bp stem, 9 nt loop
The target of series [1] is TAF15-RRM (Homo sapiens, UniProt Q92804 231-323). In words: ITC; N = 0.72; ITC: 10 mM HEPES pH 7.0, 20 mM Na2SO4 (+5 mM beta-mercaptoethanol for RRM-RanBP2 constructs), 298 K, 1 mM RNA into 100 uM protein. NMR: 20 mM Na phosphate pH 6.2, 25 mM NaCl, 5% D2O (RRM) or 25 mM Na2SO4, 5 mM beta-mercaptoethanol (TAF15-RRM-RanBP2), 298 K.
For series [2], the target named is T1, FUS-RRM (Homo sapiens, UniProt P35637 282-374). In words: ITC; sequential site N1; ITC: 10 mM HEPES pH 7.0, 20 mM Na2SO4 (+5 mM beta-mercaptoethanol for RRM-RanBP2 constructs), 298 K, 1 mM RNA into 100 uM protein. NMR: 20 mM Na phosphate pH 6.2, 25 mM NaCl, 5% D2O (RRM) or 25 mM Na2SO4, 5 mM beta-mercaptoethanol (TAF15-RRM-RanBP2), 298 K.
The target in series [3] is T1, FUS-RRM. In words: ITC; sequential site N2; ITC: 10 mM HEPES pH 7.0, 20 mM Na2SO4 (+5 mM beta-mercaptoethanol for RRM-RanBP2 constructs), 298 K, 1 mM RNA into 100 uM protein. NMR: 20 mM Na phosphate pH 6.2, 25 mM NaCl, 5% D2O (RRM) or 25 mM Na2SO4, 5 mM beta-mercaptoethanol (TAF15-RRM-RanBP2), 298 K.
Series [4] concerns the target T1, FUS-RRM. In words: ITC; sequential site N3; ITC: 10 mM HEPES pH 7.0, 20 mM Na2SO4 (+5 mM beta-mercaptoethanol for RRM-RanBP2 constructs), 298 K, 1 mM RNA into 100 uM protein. NMR: 20 mM Na phosphate pH 6.2, 25 mM NaCl, 5% D2O (RRM) or 25 mM Na2SO4, 5 mM beta-mercaptoethanol (TAF15-RRM-RanBP2), 298 K.
Series [5] deals with FUS-RRM-RanBP2 (Homo sapiens, UniProt P35637 282-454). The experiment in a line: ITC; N = 0.7; 5 mM beta-mercaptoethanol; ITC: 10 mM HEPES pH 7.0, 20 mM Na2SO4 (+5 mM beta-mercaptoethanol for RRM-RanBP2 constructs), 298 K, 1 mM RNA into 100 uM protein. NMR: 20 mM Na phosphate pH 6.2, 25 mM NaCl, 5% D2O (RRM) or 25 mM Na2SO4, 5 mM beta-mercaptoethanol (TAF15-RRM-RanBP2), 298 K.

The target in series [6] is TAF15-RRM-RanBP2 (Homo sapiens, UniProt Q92804 231-388). The experiment in a line: ITC; N = 0.8; 5 mM beta-mercaptoethanol; ITC: 10 mM HEPES pH 7.0, 20 mM Na2SO4 (+5 mM beta-mercaptoethanol for RRM-RanBP2 constructs), 298 K, 1 mM RNA into 100 uM protein. NMR: 20 mM Na phosphate pH 6.2, 25 mM NaCl, 5% D2O (RRM) or 25 mM Na2SO4, 5 mM beta-mercaptoethanol (TAF15-RRM-RanBP2), 298 K.

The target of series [7] is T1, FUS-RRM. In words: ITC; average over three sequential sites; ITC: 10 mM HEPES pH 7.0, 20 mM Na2SO4 (+5 mM beta-mercaptoethanol for RRM-RanBP2 constructs), 298 K, 1 mM RNA into 100 uM protein. NMR: 20 mM Na phosphate pH 6.2, 25 mM NaCl, 5% D2O (RRM) or 25 mM Na2SO4, 5 mM beta-mercaptoethanol (TAF15-RRM-RanBP2), 298 K.

T1 sequence (P35637 282-374): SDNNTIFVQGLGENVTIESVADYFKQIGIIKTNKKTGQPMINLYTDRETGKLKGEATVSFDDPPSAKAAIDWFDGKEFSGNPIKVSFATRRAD
Chain of TAF15-RRM (Q92804 231-323): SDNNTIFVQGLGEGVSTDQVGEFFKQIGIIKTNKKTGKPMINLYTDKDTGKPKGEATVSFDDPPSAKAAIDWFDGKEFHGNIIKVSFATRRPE
Chain of TAF15-RRM-RanBP2 (Q92804 231-388): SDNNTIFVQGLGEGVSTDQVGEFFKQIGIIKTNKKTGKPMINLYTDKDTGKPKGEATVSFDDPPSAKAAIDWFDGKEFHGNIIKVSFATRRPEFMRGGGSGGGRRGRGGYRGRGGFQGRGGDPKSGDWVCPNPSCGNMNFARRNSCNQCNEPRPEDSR
Chain of FUS-RRM-RanBP2 (P35637 282-454): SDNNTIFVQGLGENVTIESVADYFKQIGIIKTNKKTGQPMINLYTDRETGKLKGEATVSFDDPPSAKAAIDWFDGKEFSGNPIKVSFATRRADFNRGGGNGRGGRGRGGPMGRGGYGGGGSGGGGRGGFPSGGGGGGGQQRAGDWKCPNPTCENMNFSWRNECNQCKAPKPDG

Regarding CGUAUCUUUAACUACUCAAGAUACG (structured_RNA) [SON stem-loop RNA], the Kd in series [1] came to 10 ± 1 µM; in series [2], 10 ± 1 µM; in series [3] it was 13 ± 1.6 µM; in series [4], 12 ± 0.3 µM; in series [5], 8 ± 0.7 µM; in series [6] it was 6 ± 0.7 µM. In addition, the Kd in series [7] came to 11 µM.
